# Read-outs that look alike come from different tables or passages of the source.
# B1: NIH45-46^G54Y IgG (antibody, name in Kabat numbering, V domains shown)
# VH: QVRLSQSGGQMKKPGESMRLSCRASGYEFLNCPINWIRLAPGRRPEWMGWLKPRYGAVNYARKFQGRVTMTRDVYSDTAFLELRSLTSDDTAVYFCTRGKYCTARDYYNWDFEHWGRGAPVTVSS
# VL: EIVLTQSPATLSLSPGETAIISCRTSQSGSLAWYQQRPGQAPRLVIYSGSTRAAGIPDRFSGSRWGADYNLSISNLESGDFGVYYCQQYEFFGQGTKVQVDI
# B2: NIH45-46^G54W (antibody, V domains shown)
# VH: QVRLSQSGGQMKKPGESMRLSCRASGYEFLNCPINWIRLAPGRRPEWMGWLKPRWGAVNYARKFQGRVTMTRDVYSDTAFLELRSLTSDDTAVYFCTRGKYCTARDYYNWDFEHWGRGAPVTVSS
# VL: EIVLTQSPATLSLSPGETAIISCRTSQSGSLAWYQQRPGQAPRLVIYSGSTRAAGIPDRFSGSRWGADYNLSISNLESGDFGVYYCQQYEFFGQGTKVQVDI
# Assays:
# Assay in all cases: cell-based or functional assay
# [1] = biological target: HIV-1 Env of strain CAP45.2.00.G3 (HIV-1)
# [2] = biological target: HIV-1 Env of strain TRO.11 (HIV-1)
# [3] = biological target: HIV-1 Env of strain AC10.0.29 (HIV-1)
# [4] = biological target: HIV-1 Env of strain SC422661.8 (HIV-1)
# [5] = biological target: HIV-1 Env of strain CAP210.2.00.E8 (HIV-1)
# [6] = biological target: HIV-1 Env of strain ZM249M.PL1 (HIV-1)
# [7] = biological target: HIV-1 Env of strain P0402_c2_11 (HIV-1)
# [8] = biological target: HIV-1 Env of strain Q461.e2 (HIV-1)
# [9] = biological target: HIV-1 Env of strain ZM233M.PB6 (HIV-1)
# [10] = biological target: HIV-1 Env of strain TRO.11 (HIV-1); remark: listed apart in the source
# [11] = biological target: HIV-1 strain Du172.17 envelope (gp120) (HIV-1)
# [12] = biological target: HIV-1 Env of strain C1080.c03 (HIV-1)
# [13] = biological target: HIV-1 strain P0402_c2_11 envelope (gp120) (HIV-1)
# [14] = biological target: HIV-1 strain CNE17 envelope (gp120) (HIV-1)
# [15] = biological target: HIV-1 strain Q23.17 envelope (gp120) (HIV-1)
# [16] = biological target: HIV-1 Env of strain 1054_07_TC4_1499 (HIV-1)
# [17] = biological target: HIV-1 strain 3103.v3.c10 envelope (gp120) (HIV-1)
# [18] = biological target: HIV-1 strain TRJO4551.58 envelope (gp120) (HIV-1)
# [19] = biological target: HIV-1 Env of strain ZM247v1(Rev-) (HIV-1)
# [20] = biological target: HIV-1 Env of strain 703357.C02 (HIV-1)
# [21] = biological target: HIV-1 strain 6540.v4.c1 envelope (gp120) (HIV-1)
# [22] = biological target: HIV-1 strain ZM135M.PL10a envelope (gp120) (HIV-1)
# [23] = biological target: HIV-1 strain 3301.v1.c24 envelope (gp120) (HIV-1)
# [24] = biological target: HIV-1 Env of strain WEAU_d15_410_787 (HIV-1)
# [25] = biological target: HIV-1 Env of strain T278-50 (HIV-1)
# [26] = biological target: HIV-1 Env of strain 6480.v4.c25 (HIV-1)
# [27] = biological target: HIV-1 Env of strain Ce0393_C3 (HIV-1)
# [28] = biological target: HIV-1 strain 6545.v4.c1 envelope (gp120) (HIV-1)
# [29] = biological target: HIV-1 strain 211-9 envelope (gp120) (HIV-1)
# [30] = biological target: HIV-1 Env of strain X1193_c1 (HIV-1)
# [31] = biological target: HIV-1 strain T257-31 envelope (gp120) (HIV-1)
# [32] = biological target: HIV-1 Env of strain 3016.v5.c45 (HIV-1)
# [33] = biological target: HIV-1 Env of strain QH0692.42 (HIV-1)
# [34] = biological target: HIV-1 Env of strain 211-9 (HIV-1)
# [35] = biological target: HIV-1 strain T278-50 envelope (gp120) (HIV-1)
# [36] = biological target: HIV-1 Env of strain 3415.v1.c1 (HIV-1)
# [37] = biological target: HIV-1 strain 6480.v4.c25 envelope (gp120) (HIV-1)
# [38] = biological target: HIV-1 strain C2101.c01 envelope (gp120) (HIV-1)
# [39] = biological target: HIV-1 strain Du422.1 envelope (gp120) (HIV-1)
# [40] = biological target: HIV-1 Env of strain REJO4541.67 (HIV-1)
# [41] = biological target: HIV-1 strain 928-28 envelope (gp120) (HIV-1)
# [42] = biological target: HIV-1 Env of strain Du172.17 (HIV-1)
# [43] = biological target: HIV-1 strain 3415.v1.c1 envelope (gp120) (HIV-1)
# [44] = biological target: HIV-1 Env of strain CNE53 (HIV-1)
# [45] = biological target: HIV-1 Env of strain R1166.c01 (HIV-1)
# [46] = biological target: HIV-1 strain R2184.04 envelope (gp120) (HIV-1)
# [47] = biological target: HIV-1 strain 89-F1_2_25 envelope (gp120) (HIV-1)
# [48] = biological target: HIV-1 Env of strain PVO.4 (HIV-1)
# [49] = biological target: HIV-1 Env of strain ZM109F.PB4 (HIV-1)
# [50] = biological target: HIV-1 Env of strain ZM197M.PB7 (HIV-1)
binder,measurement,setting,value
B1,neutralization IC50,[1],45 mg/L
same,neutralization IC50,[2],0.1 mg/L
same,neutralization IC50,[3],0.4 mg/L
same,neutralization IC50,[4],0.06 mg/L
same,neutralization IC50,[5],> 50 mg/L
same,neutralization IC50,[6],0.003 mg/L
same,neutralization IC50,[7],0.012 mg/L
same,neutralization IC50,[8],0.023 mg/L
same,neutralization IC50,[9],0.16 mg/L
same,neutralization IC50,[10],0.08 mg/L
same,neutralization IC80,[11],> 50 mg/L
same,neutralization IC50,[12],0.29 mg/L
same,neutralization IC80,[13],0.049 mg/L
same,neutralization IC80,[14],0.264 mg/L
same,neutralization IC80,[15],0.06 mg/L
same,neutralization IC50,[16],0.064 mg/L
same,neutralization IC80,[17],0.81 mg/L
same,neutralization IC80,[18],0.07 mg/L
same,neutralization IC50,[19],0.42 mg/L
same,neutralization IC50,[20],5.6 mg/L
same,neutralization IC80,[21],> 50 mg/L
same,neutralization IC80,[22],0.3 mg/L
same,neutralization IC80,[23],0.014 mg/L
same,neutralization IC50,[24],0.002 mg/L
same,neutralization IC50,[25],> 50 mg/L
same,neutralization IC50,[26],0.018 mg/L
same,neutralization IC50,[27],0.036 mg/L
same,neutralization IC80,[28],> 50 mg/L
same,neutralization IC80,[29],> 50 mg/L
same,neutralization IC50,[30],0.006 mg/L
same,neutralization IC80,[31],0.67 mg/L
same,neutralization IC50,[32],17.9 mg/L
same,neutralization IC50,[33],0.52 mg/L
same,neutralization IC50,[34],> 50 mg/L
same,neutralization IC80,[35],> 50 mg/L
same,neutralization IC50,[36],< 0.001 mg/L
same,neutralization IC80,[37],0.051 mg/L
same,neutralization IC80,[38],0.27 mg/L
same,neutralization IC80,[39],> 50 mg/L
same,neutralization IC50,[40],0.007 mg/L
same,neutralization IC80,[41],0.33 mg/L
same,neutralization IC50,[42],> 50 mg/L
same,neutralization IC80,[43],0.037 mg/L
same,neutralization IC50,[44],0.006 mg/L
same,neutralization IC50,[45],0.24 mg/L
same,neutralization IC80,[46],0.045 mg/L
same,neutralization IC80,[47],> 50 mg/L
same,neutralization IC50,[48],0.06 mg/L
same,neutralization IC50,[49],0.026 mg/L
same,neutralization IC50,[50],0.07 mg/L
B2,"IC50, pseudovirus neutralization",[6],0.002 mg/L
same,"IC50, pseudovirus neutralization",[7],0.003 mg/L
same,"IC50, pseudovirus neutralization",[8],0.009 mg/L
same,"IC50, pseudovirus neutralization",[9],0.02 mg/L
same,"IC50, pseudovirus neutralization",[10],0.04 mg/L
same,"IC50, pseudovirus neutralization",[12],0.2 mg/L
same,"IC50, pseudovirus neutralization",[16],0.04 mg/L
same,"IC50, pseudovirus neutralization",[19],0.32 mg/L
same,"IC50, pseudovirus neutralization",[24],0.001 mg/L
same,"IC50, pseudovirus neutralization",[25],> 50 mg/L
same,"IC50, pseudovirus neutralization",[26],0.004 mg/L
same,"IC50, pseudovirus neutralization",[27],0.013 mg/L
same,"IC50, pseudovirus neutralization",[30],0.001 mg/L
same,"IC50, pseudovirus neutralization",[32],1.47 mg/L
same,"IC50, pseudovirus neutralization",[33],0.37 mg/L
same,"IC50, pseudovirus neutralization",[34],16.4 mg/L
same,"IC50, pseudovirus neutralization",[36],0.001 mg/L
same,"IC50, pseudovirus neutralization",[40],0.002 mg/L
same,"IC50, pseudovirus neutralization",[42],3.65 mg/L
same,"IC50, pseudovirus neutralization",[44],0.001 mg/L
same,"IC50, pseudovirus neutralization",[45],0.13 mg/L
same,"IC50, pseudovirus neutralization",[48],0.05 mg/L
same,"IC50, pseudovirus neutralization",[49],0.002 mg/L
same,"IC50, pseudovirus neutralization",[50],0.04 mg/L

# Reference: patent publication US20130209454A1
